According to paper PMC5910394, “Mechanically interlocked functionalization of monoclonal antibodies” (Nature Communications, 2018):
One block for each substance: values may come before it.

Tests used:
[1] = target: memAb anti-HER2 (meditope-enabled, trastuzumab-based anti-HER2 antibody); experiment: SPR; memAb anti-HER2 amine-coupled on a CM5 chip, meditope flowed over at 30 uL/min, HBS-EP+, 25 °C, 1:1 model, global fit, n=1 (authors estimate the error at 10-50%)
[2] = target: Ile83Glu anti-HER2 memAb; experiment: SPR; memAb variant amine-coupled to a CM5 chip, peptide flowed over at 30 uL/min, HBS-EP+, 37 °C, Biacore T100, 1:1 binding model
[3] = target: anti-HER2 memAb (trastuzumab-based, meditope-enabled anti-HER2 antibody); experiment: SPR; memAb variant amine-coupled to a CM5 chip, peptide flowed over at 30 uL/min, HBS-EP+, 25 °C, Biacore T100, 1:1 binding model
[4] = target: long meditope ((Ac)…); experiment: SPR; details: 37 °C (red point beside label LE); n = 1; parent: est. 5.3; read off a plot

Sequence of Ile83Glu anti-HER2 memAb (heavy, as listed by the source, chain 1 of 2): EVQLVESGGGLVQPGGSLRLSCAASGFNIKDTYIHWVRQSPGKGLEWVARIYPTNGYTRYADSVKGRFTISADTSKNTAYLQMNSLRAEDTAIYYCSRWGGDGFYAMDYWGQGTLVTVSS
Sequence of Ile83Glu anti-HER2 memAb (light, as listed by the source, chain 2 of 2): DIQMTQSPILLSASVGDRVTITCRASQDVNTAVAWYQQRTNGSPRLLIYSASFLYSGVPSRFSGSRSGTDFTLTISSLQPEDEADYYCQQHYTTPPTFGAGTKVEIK
Sequence of memAb anti-HER2 (meditope-enabled, trastuzumab-based anti-HER2 antibody) (heavy, as listed by the source, chain 1 of 2): as the sequence (heavy, as listed by the source, chain 1 of 2) above
Sequence of memAb anti-HER2 (meditope-enabled, trastuzumab-based anti-HER2 antibody) (light, as listed by the source, chain 2 of 2): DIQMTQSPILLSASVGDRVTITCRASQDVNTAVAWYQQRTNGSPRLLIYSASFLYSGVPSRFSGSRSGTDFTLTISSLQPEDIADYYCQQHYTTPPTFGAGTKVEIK
Sequence of anti-HER2 memAb (trastuzumab-based, meditope-enabled anti-HER2 antibody) (heavy, as listed by the source, chain 1 of 2): as the sequence (heavy, as listed by the source, chain 1 of 2) above

koff [1]: 0.008 s⁻¹
kon [1]: 200000 M⁻¹ s⁻¹
Substance: CQFDA(Ph)2STRRLKC meditope (peptide)

Kd [2]: 2.1 nM
half-life [2]: 1.38 h
Substance: 5-diphenylalanine-8-Arg-(PEG)2-azido-meditope ((Ac)CQFDA(Ph)2STRXLRCGGSK, X = arginine-(PEG)2-azide) (peptide)

Kd [3]: 40 nM
Substance: meditope with Leu5 substituted by L-diphenylalanine (peptide)

kon (log10(M-1 s-1)) [4]: 5.6
Substance: anti-HER2 memAb (trastuzumab-based, meditope-enabled anti-HER2 antibody) LC:Ile83Glu
